Consider six compounds from paper PMC6017014, “VpStyA1/VpStyA2B of Variovorax paradoxus EPS: An Aryl Alkyl Sulfoxidase Rather than a Styrene Epoxidizing Monooxygenase” (Molecules : A Journal of Synthetic Chemistry and Natural …, 2018).

One data set deals with T1, VpStyA2B (Variovorax paradoxus, UniProt E6V139).
T1 construct: gene styA2B
Briefly: NADH consumption at […] nm, Michaelis-Menten fit. Type of data set: biochemical. The following applies: linker AREAV (408-412) replaced/extended; NADH in excess, concentrations as for wild type; 20 mM Tris-HCl pH 7.5, 30 °C; read-out: Acceptor FAD ^1 / Km.

In data set [1] the test system is Cc1cc2nc3c(=O)[nH]c(=O)nc-3n(C[C@H](O)[C@H](O)[C@H](O)COP(=O)(O)O)c2cc1C. Nature of the data set: purified protein. Type of data set: biochemical, Variovorax paradoxus. The note with it: NADH 164 µM, FMN 4.1-90.2 µM, 20 mM Tris-HCl pH 7.5, 30 °C.
The subject of data set [2] is Cc1cc2nc3c(=O)[nH]c(=O)nc-3n(C[C@H](O)[C@H](O)[C@H](O)COP(=O)(O)OP(=O)(O)OC[C@H]3O[C@@H](n4cnc5c(N)ncnc54)[C@H](O)[C@@H]3O)c2cc1C. Nature of the data set: purified protein. The following applies: 20 mM Tris-HCl pH 7.5, 30 °C. The data set is classed as biochemical, Variovorax paradoxus.
Setting [3] is: 408-HHHHH linker mutant, NADH in excess, concentrations as for wild type.
[4] abbreviates: 408-TIVVV linker mutant, NADH in excess, concentrations as for wild type.
The mark [5] stands for this setting: 408-WYHHH linker mutant, NADH in excess, concentrations as for wild type.
The mark [6] stands for this setting: 408-AAAAA linker mutant, NADH in excess, concentrations as for wild type.

T1 sequence (E6V139 1-578): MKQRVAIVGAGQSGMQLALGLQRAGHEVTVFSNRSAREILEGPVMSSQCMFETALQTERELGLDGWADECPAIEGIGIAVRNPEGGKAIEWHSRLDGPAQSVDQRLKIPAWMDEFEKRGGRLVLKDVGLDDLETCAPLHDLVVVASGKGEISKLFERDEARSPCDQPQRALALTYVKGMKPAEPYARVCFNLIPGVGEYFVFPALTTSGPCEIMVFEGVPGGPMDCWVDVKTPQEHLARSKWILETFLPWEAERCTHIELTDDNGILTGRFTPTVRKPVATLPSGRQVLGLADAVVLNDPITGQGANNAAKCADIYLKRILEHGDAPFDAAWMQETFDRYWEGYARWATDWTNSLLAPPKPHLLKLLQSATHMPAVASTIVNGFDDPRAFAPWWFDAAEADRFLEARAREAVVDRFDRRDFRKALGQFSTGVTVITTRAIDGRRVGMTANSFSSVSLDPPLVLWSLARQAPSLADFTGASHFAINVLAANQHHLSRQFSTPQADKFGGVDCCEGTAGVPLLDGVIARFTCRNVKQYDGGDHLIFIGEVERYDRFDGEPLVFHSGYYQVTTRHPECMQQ

Turning to `Cc1cc2nc3c(=O)[nH]c(=O)nc-3n(C[C@H](O)[C@H](O)[C@H](O)COP(=O)(O)OP(=O)(O)OC[C@H]3O[C@@H](n4cnc5c(N)ncnc54)[C@H](O)[C@@H]3O)c2cc1C` [FAD], the Km at VpStyA2B stood at 7.4 µM.
VpStyA2B (Variovorax paradoxus EPS): in data set [1], the Km is recorded as 45.9 ± 6.8 µM; the Vmax (usually the rate approached at saturating substrate) was 26 µmol/min/mg; the catalytic constant (kcat) (in general, the maximal rate divided by the concentration of active sites) is 28.7 ± 1.9 s⁻¹; the kcat/Km (as a rule, the turnover number divided by the Michaelis constant) was 570000 M⁻¹ s⁻¹. In data set [2] (NADH 164 µM, FAD 6.3-78.8 µM), the Km is on record as 33.6 ± 4.0 µM, the maximal velocity (Vmax) was found to be 20.2 µmol/min/mg, the kcat turned out to be 22.3 ± 1.1 s⁻¹ and the kcat/Km came out at 640000 M⁻¹ s⁻¹.
For the compound “VpStyA2B (Variovorax paradoxus EPS; A408H/A411H/E410H/R409H/V412H)”, in data set [2] (setting [3]), the Km turned out to be 14.5 µM, the Vmax came out at 3.1 µmol/min/mg and the catalytic efficiency (kcat/Km) is 230000 M⁻¹ s⁻¹.
In the case of “VpStyA2B (Variovorax paradoxus EPS; A408T/A411V/E410V/R409I)”, in data set [2] (setting [4]), the Km came to 5.1 µM, the maximal velocity (Vmax) stood at 3.1 µmol/min/mg and the kcat/Km was 650000 M⁻¹ s⁻¹.
“VpStyA2B (Variovorax paradoxus EPS; A408W/A411H/E410H/R409Y/V412H)”: in data set [2] (setting [5]), the Km was found to be 3.2 µM, the maximal velocity (Vmax) came out at 6.9 µmol/min/mg and the catalytic efficiency (kcat/Km) was found to be 2.3e+06 M⁻¹ s⁻¹.
As to “VpStyA2B (Variovorax paradoxus EPS; E410A/R409A/V412A)”, in data set [2] (setting [6]), the Km amounted to 1.8 µM, the maximal velocity (Vmax) was determined as 8.8 µmol/min/mg and the kcat/Km was 5.21e+06 M⁻¹ s⁻¹.
